In data set [1] the target is CD58 ECD (Homo sapiens) (UniProt P19256). The following applies: cited from earlier work.
For data set [2], the target named is CD200RLa ECD (Mus musculus) (UniProt Q6XJV4). The note with it: cited from earlier work.
Data set [3] has as its target CD200R ECD (Mus musculus) (UniProt Q9ES57). The following applies: cited from earlier work.
Data set [4] deals with CD200R ECD (Homo sapiens) (UniProt Q8TD46). The following applies: cited from earlier work.
In data set [5] the target is CD47 ECD (Homo sapiens) (UniProt Q08722). The note with it: cited from earlier work.
Sequence of CD47 ECD (Homo sapiens) (Q08722 19-323): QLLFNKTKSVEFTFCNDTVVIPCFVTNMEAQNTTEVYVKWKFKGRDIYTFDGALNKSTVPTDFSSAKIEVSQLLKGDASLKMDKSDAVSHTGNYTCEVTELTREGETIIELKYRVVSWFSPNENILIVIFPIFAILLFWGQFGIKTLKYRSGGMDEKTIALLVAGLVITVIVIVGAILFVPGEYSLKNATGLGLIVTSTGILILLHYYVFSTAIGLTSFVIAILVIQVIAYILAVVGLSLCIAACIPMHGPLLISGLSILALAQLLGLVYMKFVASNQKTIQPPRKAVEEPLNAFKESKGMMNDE
Data set [6] addresses T1, Acid-soluble human collagen type I (from human placenta) (human, UniProt P02452 162-1218; P08123 80-1119). Briefly: SPR. For orientation: In SPR one partner is held on a chip, and binding of the other changes the refractive index at the surface.
Data set [7] has as its target T2, mCD200RLa/rCD4d3+4, immobilised (mouse, UniProt Q6XJV4 26-241, biotin).
T2 sequence (looked up): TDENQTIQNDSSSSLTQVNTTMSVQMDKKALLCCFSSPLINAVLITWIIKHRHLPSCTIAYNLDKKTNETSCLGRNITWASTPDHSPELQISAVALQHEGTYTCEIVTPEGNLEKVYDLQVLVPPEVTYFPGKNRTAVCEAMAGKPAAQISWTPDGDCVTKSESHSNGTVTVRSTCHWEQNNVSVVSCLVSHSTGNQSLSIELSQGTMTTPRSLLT
Briefly: SPR.

For data set [8], the target named is T3, mCD200R, immobilised (mouse, UniProt Q9ES57 26-238).
T3 sequence (looked up): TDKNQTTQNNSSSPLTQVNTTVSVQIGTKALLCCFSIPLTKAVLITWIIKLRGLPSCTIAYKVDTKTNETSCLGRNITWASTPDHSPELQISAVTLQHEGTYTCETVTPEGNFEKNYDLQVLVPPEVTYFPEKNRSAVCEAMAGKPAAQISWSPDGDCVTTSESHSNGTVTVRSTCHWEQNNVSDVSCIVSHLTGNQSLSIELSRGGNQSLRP
Briefly: SPR.

Data set [9] concerns the target (GPO)10 triple-helical peptide, GCO(GPO)10GCOG-NH2. Briefly: SPR.
The target in data set [10] is T1, Acid-soluble human collagen type I …. Briefly: SPR. This is another data set of the same source.
Data set [11] deals with the molecule itself. Briefly: SPR.

Broadly, the Kd is a measure of binding affinity in units of concentration.

T1 sequence (P02452 162-1218, chain 1 of 2): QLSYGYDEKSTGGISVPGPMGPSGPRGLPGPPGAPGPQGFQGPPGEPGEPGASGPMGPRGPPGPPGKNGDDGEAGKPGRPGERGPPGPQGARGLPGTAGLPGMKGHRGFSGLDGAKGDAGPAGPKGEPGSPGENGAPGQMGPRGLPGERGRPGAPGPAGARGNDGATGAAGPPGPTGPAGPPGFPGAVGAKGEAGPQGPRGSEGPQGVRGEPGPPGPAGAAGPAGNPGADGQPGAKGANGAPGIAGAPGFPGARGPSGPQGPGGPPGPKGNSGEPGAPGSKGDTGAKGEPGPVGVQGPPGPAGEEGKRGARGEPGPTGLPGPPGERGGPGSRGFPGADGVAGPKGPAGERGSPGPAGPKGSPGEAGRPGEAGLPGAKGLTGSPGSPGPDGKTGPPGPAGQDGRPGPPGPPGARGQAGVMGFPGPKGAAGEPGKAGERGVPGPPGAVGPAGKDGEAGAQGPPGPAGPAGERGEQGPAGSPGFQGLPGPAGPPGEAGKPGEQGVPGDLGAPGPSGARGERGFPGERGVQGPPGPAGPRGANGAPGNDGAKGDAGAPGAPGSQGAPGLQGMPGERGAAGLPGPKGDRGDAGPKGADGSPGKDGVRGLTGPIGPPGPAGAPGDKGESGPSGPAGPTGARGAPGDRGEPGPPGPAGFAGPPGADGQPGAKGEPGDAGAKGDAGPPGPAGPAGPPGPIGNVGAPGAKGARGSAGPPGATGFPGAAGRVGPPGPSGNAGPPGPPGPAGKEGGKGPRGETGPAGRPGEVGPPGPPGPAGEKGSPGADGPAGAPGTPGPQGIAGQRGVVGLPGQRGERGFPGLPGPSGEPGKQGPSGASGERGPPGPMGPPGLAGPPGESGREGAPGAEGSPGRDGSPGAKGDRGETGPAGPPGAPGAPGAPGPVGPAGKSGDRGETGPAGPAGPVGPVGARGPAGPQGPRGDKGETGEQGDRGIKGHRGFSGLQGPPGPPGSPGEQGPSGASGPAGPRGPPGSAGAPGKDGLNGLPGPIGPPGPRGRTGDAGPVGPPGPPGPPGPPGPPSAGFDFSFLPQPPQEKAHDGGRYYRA
T1 sequence (P08123 80-1119, chain 2 of 2): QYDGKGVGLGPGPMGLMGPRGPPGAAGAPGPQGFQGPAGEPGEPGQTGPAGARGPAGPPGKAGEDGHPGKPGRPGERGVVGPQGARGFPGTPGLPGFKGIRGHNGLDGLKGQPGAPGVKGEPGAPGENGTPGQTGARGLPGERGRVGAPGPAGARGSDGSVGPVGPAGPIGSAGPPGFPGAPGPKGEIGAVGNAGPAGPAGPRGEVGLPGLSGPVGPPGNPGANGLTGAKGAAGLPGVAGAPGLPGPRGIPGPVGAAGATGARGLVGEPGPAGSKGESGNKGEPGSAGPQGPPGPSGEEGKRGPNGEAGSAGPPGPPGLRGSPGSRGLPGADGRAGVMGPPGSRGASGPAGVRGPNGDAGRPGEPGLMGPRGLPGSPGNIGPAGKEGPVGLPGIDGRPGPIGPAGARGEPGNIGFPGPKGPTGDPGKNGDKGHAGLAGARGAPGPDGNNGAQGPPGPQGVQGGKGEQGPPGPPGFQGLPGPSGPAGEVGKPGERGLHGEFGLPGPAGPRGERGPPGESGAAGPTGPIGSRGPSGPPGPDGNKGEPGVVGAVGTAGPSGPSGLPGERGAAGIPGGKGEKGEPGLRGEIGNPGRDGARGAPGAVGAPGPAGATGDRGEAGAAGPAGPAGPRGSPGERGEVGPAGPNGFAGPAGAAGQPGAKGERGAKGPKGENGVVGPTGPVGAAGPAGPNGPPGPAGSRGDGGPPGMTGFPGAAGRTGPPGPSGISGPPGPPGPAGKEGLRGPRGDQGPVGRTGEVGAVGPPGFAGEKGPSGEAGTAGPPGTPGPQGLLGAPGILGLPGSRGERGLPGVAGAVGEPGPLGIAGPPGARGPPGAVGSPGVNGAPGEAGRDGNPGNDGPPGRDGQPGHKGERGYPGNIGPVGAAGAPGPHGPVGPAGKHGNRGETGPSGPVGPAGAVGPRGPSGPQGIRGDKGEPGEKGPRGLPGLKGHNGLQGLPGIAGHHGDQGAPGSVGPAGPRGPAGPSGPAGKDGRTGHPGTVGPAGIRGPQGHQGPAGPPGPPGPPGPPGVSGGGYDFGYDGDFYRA
Sequence of CD58 ECD (Homo sapiens) (P19256 29-215): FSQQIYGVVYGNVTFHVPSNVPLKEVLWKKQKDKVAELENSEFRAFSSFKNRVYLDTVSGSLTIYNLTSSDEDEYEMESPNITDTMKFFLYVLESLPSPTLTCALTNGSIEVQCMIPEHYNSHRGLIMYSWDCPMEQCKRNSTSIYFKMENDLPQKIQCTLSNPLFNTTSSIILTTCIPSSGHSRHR
Sequence of CD200R ECD (Homo sapiens) (Q8TD46 25-265): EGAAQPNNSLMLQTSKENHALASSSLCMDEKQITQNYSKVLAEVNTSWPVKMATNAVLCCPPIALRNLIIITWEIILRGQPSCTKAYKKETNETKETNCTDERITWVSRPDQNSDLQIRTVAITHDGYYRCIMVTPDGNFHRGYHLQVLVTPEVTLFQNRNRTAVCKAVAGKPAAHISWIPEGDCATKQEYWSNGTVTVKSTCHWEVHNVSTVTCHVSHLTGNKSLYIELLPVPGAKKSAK

For the molecule CD2 ECD (from UniProt P06729), the Kd in data set [1] was 10 µM.
On to CD200 ECD (from UniProt O54901), for which the dissociation constant (Kd) in data set [2] is > 500 µM; in data set [3], 4 µM.
Consider CD200 ECD (from UniProt P41217), for which the dissociation constant (Kd) in [4] is 2 µM.
On to SIRPα ECD (from UniProt P78324), for which, in data set [5], the Kd was 2 µM.

B1: hLAIR-1/rCD4d3+4, biotinylated (on beads or on the chip) (domain or fragment, human, UniProt Q6GTX8 22-165, looked up)
chain: QEEDLPRPSISAEPGTVIPLGSHVTFVCRGPVGVQTFRLERDSRSTYNDTEDVSQASPSESEARFRIDSVREGNAGLYRCIYYKPPKWSEQSDYLELLVKESSGGPDSPDTEPGSSAGPTQRPSDNSHNEHAPASQGLKAEHLY
modifications: biotin (biotin ligase BirA) on the sequence near the C terminus
For B1, the response in data set [6] was found to be 2700 RU.

B2: mCD200/rCD4d3+4 coupled beads (domain or fragment, mouse, UniProt O54901 31-232, looked up)
chain: QVEVVTQDERKALHTTASLRCSLKTSQEPLIVTWQKKKAVSPENMVTYSKTHGVVIQPAYKDRINVTELGLWNSSITFWNTTLEDEGCYMCLFNTFGSQKVSGTACLTLYVQPIVHLHYNYFEDHLNITCSATARPAPAISWKGTGTGIENSTESHFHSNGTTSVTSILRVKDPKTQVGKEVICQVLYLGNVIDYKQSLDKG
modifications: biotin on the tag that can be biotinylated
As for B2, the response in data set [7] and in data set [8] was > 3000 RU each time.

B3: mLAIR-1/rCD4d3+4, soluble monomeric (domain or fragment, mouse, UniProt Q8BG84 22-144, looked up)
chain: QEGSLPDITIFPNSSLMISQGTFVTVVCSYSDKHDLYNMVRLEKDGSTFMEKSTEPYKTEDEFEIGPVNETITGHYSCIYSKGITWSERSKTLELKVIKENVIQTPAPGPTSDTSWLKTYSIY
For B3, the dissociation constant Kd in data set [9] came to 10 µM; in data set [10], 18 µM.

B4: mLilrb4/rCD4d3+4, soluble monomeric (domain or fragment, mouse, UniProt Q64281 24-238, looked up)
chain: GHLPKPIIWAEPGSVIAAYTSVITWCQGSWEAQYYHLYKEKSVNPWDTQVPLETRNKAKFNIPSMTTSYAGIYKCYYESAAGFSEHSDAMELVMTGAYENPSLSVYPSSNVTSGVSISFSCSSSIVFGRFILIQEGKHGLSWTLDSQHQANQPSYATFVLDAVTPNHNGTFRCYGYFRNEPQVWSKPSNSLDLMISETKDQSSTPTEDGLETYQK
Consider B4, for which the results for the equilibrium dissociation constant (Kd) in [9] and in data set [10] were 33 µM and 39 µM, respectively.

B5: mLilrb4/rCD4d3+4, biotinylated (on beads or on the chip) (domain or fragment, mouse, UniProt Q64281 24-238, looked up)
chain: B4 chain
modifications: biotin (biotin ligase BirA) on the sequence near the C terminus
As to B5, the response in data set [11] was 1750 RU.

The values are drawn from paper PMC2696799 (European journal of immunology, 2009).
